Test results from the DeepSol protein solubility set.

Assay: soluble on expression in E. coli; label from the status in PepcDB or PDB records

Soluble on expression in E. coli, not soluble:
MGSDKIHHHHHHMTGRQFDIEPLMDEINKSLKQEVNYLTEAQNTDLVKRTLTADHYVVPKVYHDYTTETVLTQSFETGLSVNQWIRSNPSRSDIQNFSQLVIQLMIDEMLLTGVVQTDPNYANFLYRPDSRQLVLLDFGATWTYSTEFRHDIHKLSMALLSGEIDKLMVGIYTRGYLDTRESDETKAQLREVLRMIGDISANLPQPVALQVDVAHDEIRAAAHVMGRGIRHTTLHKDLVLIGRKLTGMLLLLKEINAIVDFNEVRAHISAIKV, MGSDKIHHHHHHMTICYNFAYLDEGTKKKIRRTLLKAVAIPGHQIPFASREMPLPYGWGTGGIQVTAAVIGPEDILKVIDQGSDDTTNAVSIRNFFRSTTGVRTTTSTREATLIQTRHRIPETPLHAGQMLIYQVPMPEPLFKLEPRVSETIALHAMADYSLMYLKLYDQITRYGRIAIGYEYPVIVHDRYLTSSSPIPAYDVPKMHMSPALQLFGAGREKRLYAIPPYTRVIPLDFTDYPFDPVNTWQPCALCGAVESYKDEIVIDDAGNRQFICSDTDFCEHRR, MGSDKIHHHHHHMTISISEPTPPASLLAIKDEIRAEALKLGFSVCGFASATDAWPNGGWLREFVQAERHGAMGWMEETLERRSHPTAMWTDAKSAVVLGVNYGPDIDPLEQLADPARAAISVYAQGDDYHDVIKKRLKVLAGWMHRRFGQEVKVFVDTAPLLEKPLAQRAGLGWQGKHTNLVSRQFGSWLFLGSVLTTLDLPADDAEVDHCGSCRACLDVCPTNAFPAPRQLDARRCISYLTIELSGPIPAEFRPAMGNRIYGCDDCLAVCPWNKFASLSNEAKLVAREALRQPSLAELAVLDDAAFRALFSKNPIKRIGRDRFVRNVLYAIGNSGDAGLMAVVEPLLDDPAPVVRGAAVWAARRLLGDDAAALKRGENDESVLAEWS, MGSDKIHHHHHHMTKHFSPYDADKPLFATCSCGQHASEEDHLKAGMSTLEHQETGRSTEEEFSNDFIEAALVKAILPHERQRRDFLRAVGKGAAMAAISAVFPLGSLKAMAMEKGSIEKSTLKVGFIPITCAAPLILAEPMGFFKEQGLNVELNKTAGWALVRDKIMNHEYDASQFLAPMPLAMTLGAGSSAQTVNVAAIQNVNGQAIVLALKHKSNRDPKNWKGFKFAIPFEFSMHNFLLRYYLAEAGIDPDRDVQLRVVPPAEMLANLRAGNIDGFLGPDPFSQRAVFEGVGFIHILSQDIWNGHPCCSFGASASFIQQNPNTFAALYRAFLKSSAFAHDKNNRKEVAAIISKPKYLNQPEIIVNQVITGRYADGLGNIVNAPGRVGFEAIPWEGMALWMLTQMKRWGYLKGDVSYQAIAEKVFMMTDAKKAMQGLGLEVPQSSGKIVVMGKAFDPLKPQSYVDSFGIKR, MGSDKIHHHHHHMTKKTGFFKRLKALELPQKQLFAIALCQRMLPNYQLFSEVCEFGDPAVLNTVLELLWQSQYDNKLKFNIDVHLQRLEDNTPDPVDFEAYGVYPAMDAVVALSTLLSAIQDKNEEDIINISKLSSSTVANYIEAISDVDLVDDALDDFVFAHEVMEEEKELQNSLLEIIEENPKITAELVKGLRKDIIEAGVSNIGISIA, MGSDKIHHHHHHMTKRAYQYRFYPTPEQAQLLARTFGCVRFVYNAVLRYRTDAFYQRQERIGYVEANAYLTRMKKADETAFLNEVSSVPLQQCLRHQQAAFKHFFEGRARYPAFKNKRHRQAAEFTRSAFKYRNGQLFLAKCKEPLAIRWSRELPSEPTTITISKDSAGRYFVSCLCEFTPETLPVTPRMTGIDLGLKDLFITDQGERIGNPRHTAKYAARLAKAQRRLSKKKLGSANRAKARKRVARLHAKISDCRMDRLHKLSRRLINENQVVCVESLKVKNMLRNPSLAKAIADAGWGEFARQLEYKAQWAGRQLVRIDPWYPSSKRCSDCGHIKDALPLSVRAWDCPACGVTHDRDINAARNIKAAGLAVLALGENVSGMEPVSVSGSR, MGSDKIHHHHHHMTLPEPDFIARDPAVITAELIAQYEQMSGKTLYPAQVERLLIDLMAYRETLVRVGIQEAAKQNLVAYARAPMLDYLGQLVGVTRLPAQPARATLRFTLDAPLASPLPIPAGTRVESGDGVVAFATDEAATLPAGRTSLEIAATCQDAGSAGNGWQPGQIVNLMDDLGDMDVVVTNTAVTAGGVDEEDDERLRERIMLAPESFSNAGSRQAYRFHALRAHQSIVDVAVLSPTPGVVQLYPLLKTGLPDANMLALVQATCSAERVRPLTDYVEALAPTAIDYAIDVRLTVYPDVDGKAVKTQAQERLQAYAAERAGALGRDIVPSQIIAAVQVPGVYQATVASPGLQQVPEHGWARCTGVSVTLEGVSHG, MGSDKIHHHHHHMTMKTRDKILLSSLELFNDKGERNITTNHIAAHLAISPGNLYYHFRNKSDIIYEIFQEYEKLVDYYLDIPEDRPITLEDMTFYLESVFDGLWSYRFFHRDLEYLLDSDPRLRQDYREFTNRCLAAINRIFAKLADAGIIQPQPEDLRSAMSLNVWLVITNWMAFLKTAHAAEEPASLSLTELKQGIYQVLTLEVPYLTPEYRERVLALREKYRPTLPEAQGISGVEA, MGSDKIHHHHHHMTMTFALRDPAQVLARALELRVDVSPETAEVEHELGALHDRMRRPGDRLHDMPHMPSGLPGLRLRYREADGEIFVYVEDVASRQLAGYTVFNRLIEVGRRADPWVRSPHTKFAPPYQRLGLASGLYRWALDGGLCLLSGARQSAGAHALWQSLGRRYALGYVDLRYKTLTSLGEQVSAVVKDDLHTRMLLLGHGWTLGRFKEATGMY, MGSDKIHHHHHHMTNDSIKSETEVAPRDQSAVGTIPWAIKGELILNCNCTVFCPCVVSLGKHPPTEGYCQAWAGVRIDEGHYGDADLSGLNVGLVLEIPGLMARGNWKAAAYIDERASDAAYEGLIDVFSGKARGTTGLFKVLVSEFLGAERAPVLFETEGKTRRLIVGYYIHGEVVPVGGADSDQDIVVTNTEYWMGPDITVATATKGRVRAFGRVWDFDGRSAEICQIDWKGPR, MGSDKIHHHHHHMTQDAQCTRRTDWIPLAREVLDIEIEGIAAMRDRLNGGFVDALTLMARCTGRVVITGLGKSGLVGRKLAATLSSTGTPAFFLHPVEGAHGDMGMLRSDDVIIAISNSGETDELNAILPALRSLGASLIAMTGGLESTLAKSADVVLDTGVRREACPLNLAPTASTTAVLAMGDALAVCLIHWKSFTENDFLRFHPGGSLGHRLSMRVESLMHTENLPVVRETVRTGEALRVLDEGRLGTVLVTDGQGRLSGILTDGDVRRMVCREAGVETASPVANVMVRSPLTARKEFSVAQLIDMMEERAITVLPITGDDGLLLGVVHLHDLLGKGGVKFSR, MGSDKIHHHHHHMTRADYLNQLEQALFQLHPSARQEALDYFNEYFDEKDNDEEAIIELGTPDEAAKEIIANLPEDALIPEKDQASPHSSKPFDFNFDFDFQFDWENFFNNFKHSAYQARERIKLTSKIEELPEFSNLQISLEDQALSVQSYEGEAVLLHNPVSEDGSYQAFDYQLVQDSLYISSKPTPNHLYFSNNQISSAILKIPKKLLPLTNLNLKTADSSLTIVDVQVCEQMVVNAKDSSISMTKVSCPSSALQLEDSTLTISDGQMSELKLEASDAVITLSSMSLSDARITLEDCVWKLKDFVLEKSLNCQAEDSVLTYKPSTDISLDIWEEDSSLKLPKDKAFTMMKEGDITHLSYKQENSPAQLVIHCQDCQLSVG, MGSDKIHHHHHHMTRFRSTLPQVNGTTLLTDSGLETTLIFHDGLDLPCFAAYPLMETAEGRAVLRDYFQRHLAIASERSAGFLLESPTWRASRDWGAQLGHGPDDLARLNNDAIAMLVDLRDDATGVGPIVISGNIGPRGDGYVADAAMTADEAEDYHAEQIGWFAQSEVDLATAVTLSTVAEGVGVIRAAHRVDLPVVVSFTTETDGRLPDGTPLGRAIEQTDALTDGAAAYFMVNCAHPDHFRPVLDTGTAWLNRIGGVRANASRMSHAELDEAETLDAGDPAELGRDYRDLRQILPNLTVIGGCCGTDHRHIEAMADRCLGHNAA, MGSDKIHHHHHHMTRILVLYFTRGGHTAKIANAIAEQLTLRGAKVDLVDINSAAATRINWSDYQLVALGACVLYGTYDKSVFQFIEQHVQALSFLPNSFFCVNVVARNPEKRIPENNKYLQKFITLSPWTPADLKIIAGKVDYPSWPWYDRLMIQLIMKITKGPTDPKAVIDYTDWEDVKVYADHLLTLVEVAEPA, MGSDKIHHHHHHMTRLEIVDSKLRQAKKTEEYFNAIRTNIQFSGKENKILAITSVREGEGKSTASTSLALSLAQAGFKTLLIDADTRNSVMSGTFKATGTIKGLTNYLSGNADLGDIICETNVPRLMVVPSGKVPPNPTALLQNAYFNKMIEAIKNIFDYIIIDTPPIGLVVDAAIIANACDGFILVTQAGRIKRNYVEKAKEQMEQSGSKFLGIILNKVNESVATYGDYGNYGKRDRKRK, MGSDKIHHHHHHMTRTSPTHAKLAQPIVHAPGLFHSLAPGERKRDKLDVTHVAGDTTVRFVGFEPLDSTDLRVLQGLIALATAGLRNIRRLLRDGQSLRTSLDLKGDAQDERTVAARFTLASLADMAGFDRGGFGCRQMRASLQRLSNVTVLVDRPEFEGAFRLVSGYRLDKHTGELVVSISPLGTTAILGRQGYLRLNMDEVRRIHGEVAHLIHSRLHWVNQGDRRPVNMDTLCSYAYVGVRTGSALRKRRMAVRQALKELMDVGWTVTEKYPGTYLIGRPRRASDQGELVTRAGVNW, MGSDKIHHHHHHMTSDIKRHIKELISGSENSEVEFKSAKGGLPESFWETFSAFANTNGGIIVLGIKEKNGIFMPDGLNKQQIDTYKKRFWDCAHNKEKVSATMLAERDVYETDIDGNFVLLFRIPRASYDIRPVYLTRNPFGNTFKRNHEGDYHCTDSEIRQMFADAHHATLPFDNQILPNYSMNDIDVATLKGYRQRFMLRKDNHPWNELDDFNFLCKIGAYRVDRENGQEGFTRAGILMFGKTESITDQVCCPWYFVDYQEKLSNNTNERWSDRIYADGSWNANLYQFFFKVYNKLSQTLPAPFLLNGIERTEETSAHIAIREALVNCIVHCNYAEQGNILIVREKDKITFRNPGRMLISVDDFYVGSQSVCRNPIIQKFFIQLGYGEKAGSGADYIVKGAIDNKWHIPALVEHVQPDTVSLYLYLNDANDTSYDANNTSYDANDTSYDANDTSYDANDTSSNEHGQRLTKETLINRVLEICEDWITIDEISEKTGKSRQYLRGRIIPEMLKLGLLEKQYPDASTSPNQKYRKKQ, MGSDKIHHHHHHMTTARRQLIDAESTPFYHVINRCVRRAFLCGEDALSGRSYEHRRDWIVDKIKQLSSVFCIDVCAYAVMSNHYHLVLKINLATQKRLSHFEVIERWTQLFFGHPVAAKFLKGDSLEEGERLLLDSLIGEWQERLGSISWFMRCLNEEIARKANREDGCKGVFWEGRFKSQALLDEQALLACMMYVDLNPIRAGIADSLQGSDYTSIQERIEELASPQSAPVALKPLLAFDGAAIATEQCGIPFHFADYLELIDWTGRAVREDKRGFIATTRPKLLAELGISDDAWITSAKEFRRQYSGISGRWDAMCAMKAKCGGKWCRGKQQSASIHPD
